Target: T1, LANA2 fused to GAL4-AD (plasmid pGAD424) (Kaposi's sarcoma-associated herpesvirus …, UniProt F5HIC6 1-566)
T1 sequence: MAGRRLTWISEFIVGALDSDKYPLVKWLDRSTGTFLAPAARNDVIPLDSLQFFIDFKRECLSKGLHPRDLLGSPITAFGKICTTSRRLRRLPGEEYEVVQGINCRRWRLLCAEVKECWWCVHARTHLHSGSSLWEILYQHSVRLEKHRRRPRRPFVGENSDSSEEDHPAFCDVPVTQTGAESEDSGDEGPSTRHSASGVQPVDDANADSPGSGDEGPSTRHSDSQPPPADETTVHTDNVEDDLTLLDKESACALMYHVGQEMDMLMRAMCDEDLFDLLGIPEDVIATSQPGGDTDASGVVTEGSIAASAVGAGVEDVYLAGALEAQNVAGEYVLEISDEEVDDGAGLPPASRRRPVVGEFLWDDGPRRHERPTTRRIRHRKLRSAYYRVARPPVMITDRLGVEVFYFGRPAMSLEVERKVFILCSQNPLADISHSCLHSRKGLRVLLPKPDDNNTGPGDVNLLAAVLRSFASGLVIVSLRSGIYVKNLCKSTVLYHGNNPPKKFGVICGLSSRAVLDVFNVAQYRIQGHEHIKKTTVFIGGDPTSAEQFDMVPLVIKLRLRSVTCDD
Test: yeast two-hybrid assay, strain Y-190, b-galactosidase

B1: murine p53 fused to GAL4 DNA-binding domain (DNA-BD/murine p53 fusion protein PVA3) (other)
chain: MKLLSSIEQACDICRLKKLKCSKEKPKCAKCLKNNWECRYSPKTKRSPLTRAHLTEVESRLERLEQLFLLIFPREDLDMILKMDSLQDIKALLTGLFVQDNVNKDAVTDRLASVETDMPLTLRQHRISATSSSEESSNKGQRQLTVSPVTETPGPVAPAPATPWPLSSFVPSQKTYQGNYGFHLGFLQSGTAKSVMCTYSPPLNKLFCQLAKTCPVQLWVSATPPAGSRVRAMAIYKKSQHMTEVVRRCPHHERCSDGDGLAPPQHLIRVEGNLYPEYLEDRQTFRHSVVVPYEPPEAGSEYTTIHYKYMCNSSCMGGMNRRPILTIITLEDSSGNLLGRDSFEVRVCACPGRDRRTEEENFRKKEVLCPELPPGSAKRALPTCTSASPPQKKKPLDGEYFTLKIRGRKRFEMFRELNEALELKDAHATEESGDSRAHSSYLKTKKGQSTSRHKKTMVKKVGPDSD
notes: also called p53 into the Gal4-BD cassette
B1: no binding.
